Measured values taken from article doi:10.1101/2025.06.10.658980, “Structures reveal how the Cas1-2/3 integrase captures, delivers, and integrates foreign DNA into CRISPR loci” (bioRxiv, 2025).

B1: Cas1 (type I-F, Pseudomonas aeruginosa PA14), StrepII-tagged (enzyme)
chain: MDDISPSELKTILHSKRANLYYLQHCRVLVNGGRVEYVTDEGRHSHYWNIPIANTTSLLLGTGTSITQAAMRELARAGVLVGFCGGGGTPLFSANEVDVEVSWLTPQSEYRPTEYLQRWVGFWFDEEKRLVAARHFQRARLERIRHSWLEDRVLRDAGFAVDATALAVAVEDSARALEQAPNHEHLLTEEARLSKRLFKLAAQATRYGEFVRAKRGSGGDPANRFLDHGNYLAYGLAATATWVLGIPHGLAVLHGKTRRGGLVFDVADLIKDSLILPQAFLSAMRGDEEQDFRQACLDNLSRAQALDFMIDTLKDVAQRSTVSA
notes: Four Cas1 subunits (two homodimers) stand in the Cas1-2/3 heterohexamer; also called StrepII-tagged Cas1; Cas1a; source: E. coli BL21(DE3), co-expressed with Cas2/3 from a single plasmid; in lysate, and purified (StrepTrap HP, Superdex 200); not shown: StrepII, N-terminal, kept
B2: Cas2/3 fusion protein (type I-F, Pseudomonas aeruginosa PA14), untagged (enzyme)
chain: MNILLVSQCEKRALSETRRILDQFAERRGERTWQTPITQAGLDTLRRLLKKSARRNTAVACHWIRGRDHSELLWIVGDASRFNAQGAVPTNRTCRDILRKEDENDWHSAEDIRLLTVMAALFHDIGKASQAFQAKLRNRGKPMADAYRHEWVSLRLFEAFVGPGSSDEDWLRRLADKRETGDAWLSQLARDDRQSAPPGPFQKSRLPPLAQAVGWLIVSHHRLPNGDHRGSASLARLPAPIQSQWCGARDADAKEKAACWQFPHGLPFASAHWRARTALCAQSMLERPGLLARGPALLHDSYVMHVSRLILMLADHHYSSLPADSRLGDPNFPLHANTDRDSGKLKQRLDEHLLGVALHSRKLAGTLPRLERQLPRLARHKGFTRRVEQPRFRWQDKAYDCAMACREQAMEHGFFGLNLASTGCGKTLANGRILYALADPQRGARFSIALGLRSLTLQTGQAYRERLGLGDDDLAILVGGSAARELFEKQQERLERSGSESAQELLAENSHVHFAGTLEDGPLREWLGRNSAGNRLLQAPILACTIDHLMPASESLRGGHQIAPLLRLMTSDLVLDEVDDFDIDDLPALSRLVHWAGLFGSRVLLSSATLPPALVQGLFEAYRSGREIFQRHRGAPGRATEIRCAWFDEFSSQSSAHGAVTSFSEAHATFVAQRLAKLEQLPPRRQAQLCTVHAAGEARPALCRELAGQMNTWMADLHRCHHTEHQGRRISFGLLRLANIEPLIELAQAILAQGAPEGLHVHLCVYHSRHPLLVRSAIERQLDELLKRSDDDAAALFARPTLAKALQASTERDHLFVVLASPVAEVGRDHDYDWAIVEPSSMRSIIQLAGRIRRHRSGFSGEANLYLLSRNIRSLEGQNPAFQRPGFETPDFPLDSHDLHDLLDPALLARIDASPRIVEPFPLFPRSRLVDLEHRRLRALMLADDPPSSLLGVPLWWQTPASLSGALQTSQPFRAGAKERCYALLPDEDDEERLHFSRYEEGTWSNQDNLLRNLDLTYGPRIQTWGTVNYREELVAMAGREDLDLRQCAMRYGEVRLRENTQGWSYHPYLGFKKYN
notes: Two Cas2/3 subunits stand in the Cas1-2/3 heterohexamer, joined through the Cas2 homodimer; also called Cas3; Cas3a; source: E. coli BL21(DE3), co-expressed with StrepII-Cas1 from a single plasmid; in lysate, and purified with Cas1 (StrepTrap HP, Superdex 200)

Tests used:
[1] = biological target: the molecule itself; test: cryo-EM structure; Cas1-2/3 capture complex without nucleic acid, 12.8 uM, 3.3 Å
[2] = biological target: B1; test: SEC; affinity-purified Cas1-2/3 on Superdex 200 in 10 mM HEPES pH 7.5, 500 mM potassium glutamate, 10% glycerol; single peak, estimated ~380 kDa; conditions: both partners purified

## B1
[1]
  stoichiometry N: 2

## B2
[1]
  stoichiometry N: 2
[2]
  stoichiometry N: 2 Cas1 per Cas2/3 (4:2)
